Experimental findings from publication PMC4339880, “Enzymatic properties and subtle differences in the substrate specificity of phylogenetically distinct invertebrate N-glycan processing hexosaminidases” (Glycobiology, 2014) are described below.

Where a chain is given by its changes, count along the chain named.

For series [1], the target named is T1, DmFDL (Drosophila melanogaster FDL) (Drosophila melanogaster, UniProt Q8WSF3, W506A).
T1 construct: soluble form without transmembrane domain, alpha-factor secretion signal, N-terminal His-tag, P. pastoris X-33 (codon-optimized; also made in Hi5 insect cells), Ni-NTA purified
T1 sequence (Q8WSF3 37-660 W506A limits assumed): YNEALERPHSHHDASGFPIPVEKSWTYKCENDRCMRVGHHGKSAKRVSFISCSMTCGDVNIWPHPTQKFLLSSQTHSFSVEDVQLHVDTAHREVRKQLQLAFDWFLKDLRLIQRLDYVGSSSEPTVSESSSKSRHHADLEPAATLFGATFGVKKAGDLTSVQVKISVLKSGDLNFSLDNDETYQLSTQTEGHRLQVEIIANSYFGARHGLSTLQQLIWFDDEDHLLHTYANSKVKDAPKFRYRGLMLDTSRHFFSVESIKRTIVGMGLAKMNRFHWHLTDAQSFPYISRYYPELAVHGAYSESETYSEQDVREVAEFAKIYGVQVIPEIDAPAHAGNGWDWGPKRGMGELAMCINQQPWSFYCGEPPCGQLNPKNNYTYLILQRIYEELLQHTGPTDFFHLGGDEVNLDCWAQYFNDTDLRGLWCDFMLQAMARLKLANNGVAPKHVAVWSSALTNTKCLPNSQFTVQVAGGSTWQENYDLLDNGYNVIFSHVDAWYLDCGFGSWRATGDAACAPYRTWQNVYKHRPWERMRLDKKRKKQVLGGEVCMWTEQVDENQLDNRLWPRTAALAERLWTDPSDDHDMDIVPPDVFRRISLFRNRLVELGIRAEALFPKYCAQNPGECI
Kind of series: p-nitrophenol release, A405. The series is classed as biochemical. Conditions: 5 mM substrate, McIlvaine buffer, 30°C.

Series [2] addresses T2, DmFDL (Drosophila melanogaster FDL) (Drosophila melanogaster, UniProt Q8WSF3, G400V).
T2 construct: soluble form without transmembrane domain, alpha-factor secretion signal, N-terminal His-tag, P. pastoris X-33 (codon-optimized; also made in Hi5 insect cells), Ni-NTA purified
T2 sequence (Q8WSF3 37-660 G400V limits assumed): T1 sequence (Q8WSF3 37-660 W506A limits assumed) with G364V, A470W
The experiment in a line: p-nitrophenol release, A405. Conditions: 5 mM substrate, McIlvaine buffer, 30°C. In kind it is biochemical.

The target in series [3] is T3, CeHEX-4 (Caenorhabditis HEX-4) (Caenorhabditis elegans, UniProt Q8WTK2).
T3 sequence (Q8WTK2 25-491): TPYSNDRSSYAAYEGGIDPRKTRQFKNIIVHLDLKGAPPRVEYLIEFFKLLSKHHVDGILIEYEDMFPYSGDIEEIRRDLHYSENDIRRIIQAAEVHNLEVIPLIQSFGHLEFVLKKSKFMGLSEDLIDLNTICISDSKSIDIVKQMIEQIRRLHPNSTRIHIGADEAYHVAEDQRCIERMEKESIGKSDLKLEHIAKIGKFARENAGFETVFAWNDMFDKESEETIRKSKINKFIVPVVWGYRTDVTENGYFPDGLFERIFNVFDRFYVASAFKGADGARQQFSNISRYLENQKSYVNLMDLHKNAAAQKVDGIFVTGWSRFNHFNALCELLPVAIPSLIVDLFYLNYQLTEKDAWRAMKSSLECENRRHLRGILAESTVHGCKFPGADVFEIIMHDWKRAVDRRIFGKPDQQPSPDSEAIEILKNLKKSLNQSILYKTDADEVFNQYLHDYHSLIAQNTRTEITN
The experiment in a line: inhibition of pNP-β-GalNAc hydrolysis (A405), Cheng-Prusoff from IC50; Dixon plot. Conditions: substrate pNP-β-GalNAc, McIlvaine buffer, 37°C. The series is classed as biochemical.

Substrate in series [4]: CC(=O)N[C@H]1[C@H](Oc2ccc([N+](=O)[O-])cc2)O[C@H](CO)[C@@H](O)[C@@H]1O
The experiment in a line: p-nitrophenol release, A405, non-linear fit. The series is classed as biochemical, Caenorhabditis elegans. Conditions: McIlvaine buffer at optimal pH (5-6), 37°C.

Substrate in series [5]: CC(=O)N[C@H]1[C@H](Oc2ccc([N+](=O)[O-])cc2)O[C@H](CO)[C@H](O)[C@@H]1O
Kind of series: p-nitrophenol release, A405, non-linear fit. In kind it is biochemical, Caenorhabditis elegans. Conditions: McIlvaine buffer at optimal pH (5-6), 37°C.

Substrate in series [6]: CC(=O)N[C@H]1[C@H](Oc2ccc([N+](=O)[O-])cc2)O[C@H](CO)[C@@H](O)[C@@H]1O
The experiment in a line: purified protein, by the assay type. Set-up: p-nitrophenol release from pNP-glycoside substrate, A405, non-linear Michaelis-Menten fit. How it is done:
(§1) Determination of Km, specific activity, kcat and Ki Standard enzymatic activity assays were performed using pNP-β-GlcNAc (Sigma, USA) and pNP-β-GalNAc (Sigma, USA) as a substrate. The assays were performed at a substrate concentration of 5 mM in McIlvaine buffer, pH 4.0–6.0 at 30°C for Drosophila FDL and at 37°C for the other hexosaminidases. The total reaction volume was 40 µL and incubation time was 2 h. All purified enzymes were tested for additional activities using a range of p-nitrophenyl-sugars as substrates at a concentration of 5 mM for 4 h. After the addition of 200 µL of 0.4 M glycine/NaOH pH 10.4, A405nm was determined on a Tecan Infinite M200 microtiter plate reader (Tecan, Austria). All enzymes were appropriately diluted for measurements in order to measure reactions within the linear range of the assay. Enzyme units are given in µmol product (nitrophenol) per minute.

Substrate in series [7]: CC(=O)N[C@H]1[C@H](Oc2ccc([N+](=O)[O-])cc2)O[C@H](CO)[C@H](O)[C@@H]1O
The experiment in a line: purified protein, by the assay type. Set-up: p-nitrophenol release from pNP-glycoside substrate, A405, non-linear Michaelis-Menten fit. The protocol:
as §1

Turning to `CC(=O)N[C@H]1[C@H](Oc2ccc([N+](=O)[O-])cc2)O[C@H](CO)[C@H](O)[C@@H]1O` [pNP-β-GalNAc, p-nitrophenyl-β-D-N-acetylgalactosaminide], the “p-nitrophenol release, A405” value in series [1] is “the W506A mutant showed decreased activity toward pNP-β-GalNAc”; in series [2], “the Drosophila G400V mutant showed increased”.

What is called Ki is a measure of affinity in units of concentration, obtained from inhibition or displacement. Molecule `CC(=O)N[C@H]1C(O)O[C@H](CO)[C@H](O)[C@@H]1O` (stereo partly shown) [GalNAc, N-acetylgalactosamine] gave a Ki in series [3] of 1 mM.

B1: CeHEX-2 (C. elegans HEX-2) (Caenorhabditis elegans) (protein)
chain: SYPKGGISQRALDSMQKEPQTPVLVQKRENFEESIDVAVEQESKKENPFVNQQASTENAKPITQEVKIERPSRDNEFYKNVVIHFDLKGAPPKVDYFLDLLRLIAKGGATGILLEWEDMFPWTGKLEQFKNTDAYSESDVDMILSEATKLKLDVIPLVQTFGHLEWILKYEEMRKYRENDAYPQVLCLGNEEGVEFVREMIRQVAKKHAKYGIPFFHIGADEAFEFGVCQESLDWIKKNGKNGRKQLLALAHLKAIAEFAKQQTGDSTQILAWHDMLKDFDSRLIKNLELGQIIQPVVWDYSENIITLNDYIFSALAENFPTMWASSAYKGANYPSASTSEVRHYETNNRNWIRTKQNQERKFKNGFQGIIVTGWQRYDHLAGLCETLPIGTASMMLQMQIALNAPALDLEGTRQKAATLLECQGFNVDGVKVVSNQCKYRGFQTYLIYQSEVPNLFARIDSELSKNHHLMGWANRYNRKYNISQNWYHREMLPFVQQLVGQYDRVESDLRASMKDLYFENTIDEFIYENLGEMSEKLHGYLEEIQRLDKLRAWPKRHFPIKK
notes: soluble form without transmembrane domain, alpha-factor secretion signal, C-terminal His-tag, P. pastoris X-33, Ni-NTA purified
One may read the Km as the substrate concentration at which the rate is half of its maximum. In general, kcat refers to the number of substrate molecules converted per active site and unit of time at saturation. The kcat/Km is the second-order rate constant that governs catalysis at low substrate concentration. For B1, in series [4], the Km stood at 0.23 ± 0.15 mM, the kcat turned out to be 8.6 ± 0.8 s⁻¹ and the kcat/Km worked out at 22000 ± 3600 M⁻¹ s⁻¹. Further, the Km in series [5] amounted to 0.41 ± 0.08 mM.

B2: CeHEX-3 (C. elegans HEX-3) (Caenorhabditis elegans) (protein)
chain: TSQFKSTTTHARFVPEPSDPRLHPNSPLQAPKAQEPAAAETTKKPSRQPHHTTAKPRTENVEINGEKYPKLSPDGNLIPQRRIVHLDLKGAPYKPEFFTELFAFFNRIQATGILLEWEDMFPFKGRLRGAINKNAYSMETVEHILQEAQKHHLQIIPLVQTMGHLEWILKLEEFAHLREDTRFPQVICFSDENAWELIKEMIEEVANVHKKYGMSYFHIGADEAFQIGICNASITQIKKEFTRERLMLWHIARTARFVKEKYPETQVLAWHDMLASAMESDIEDYKLTELLQPVLWNYAEDLDIYLPRSTWMIVRNFRNVWGSSAWKGADGPARYSTNANHYLKNHESWIKQFTMVYKDFEVVEGLIMAGWSRYDHFAVLAETIPVALPTLAMSMETMIEGRPLAGNYPVTSELLQCTPPLDLGFTATGCKFPGNRIYELINEMYQKQMQLRTYRLDDYELNGWLSRVADDYSVSSHWYIDKIENMIEMHATPLEQLADDLRFEMERIFFKDTVDEFIFTYLGEDLEWFNRKRETIRKVSTSQTFPKRPFIESAKSEKTCT
In the case of B2, in series [4], the Km worked out at 0.97 ± 0.70 mM, the kcat was 0.1 s⁻¹ and the kcat/Km came to 200 ± 100 M⁻¹ s⁻¹. For the same molecule, in series [5], the Km was determined as 0.59 ± 0.14 mM, the kcat came to 5.2 ± 1 s⁻¹ and the kcat/Km was determined as 7800 ± 3000 M⁻¹ s⁻¹.

B3: DmFDL (Drosophila melanogaster FDL) (Drosophila melanogaster) (protein)
chain: T1 sequence (Q8WSF3 37-660 W506A limits assumed) with A470W
notes: soluble form without transmembrane domain, alpha-factor secretion signal, N-terminal His-tag, P. pastoris X-33 (codon-optimized; also made in Hi5 insect cells), Ni-NTA purified
For the molecule B3, in series [6], the Km amounted to 1.40 ± 0.08 mM, the kcat came out at 48.2 ± 2.2 s⁻¹ and the catalytic efficiency (kcat/Km) is 42000 ± 1800 M⁻¹ s⁻¹. Further, in series [7], the Km came out at 0.52 ± 0.03 mM, the kcat worked out at 5.6 ± 0.1 s⁻¹ and the kcat/Km was determined as 11900 ± 800 M⁻¹ s⁻¹.

B4: CeHEX-4 (Caenorhabditis HEX-4) (Caenorhabditis elegans) (protein)
chain: T3 sequence (Q8WTK2 25-491)
Turning to B4, in series [4], the Km is 3.47 ± 0.35 mM, the kcat was 12.6 ± 1.4 s⁻¹ and the kcat/Km was found to be 2200 ± 100 M⁻¹ s⁻¹. Further, in series [5], the Michaelis-Menten constant (Km) amounted to 0.59 ± 0.05 mM, the catalytic constant (kcat) worked out at 13.8 ± 1.4 s⁻¹ and the kcat/Km is 19500 ± 2300 M⁻¹ s⁻¹.
